Assay results taken from patent publication US20230348564A1, “ANTI-CANCER PROTEINS” (UNICHEM LABORATORIES LTD, priority 2020, published 2023).

What was measured:
Notch-1 = experiment: biomarker levels in IOMM-Lee by ELISA; format: cell-based, Human; conditions: 1 μg/mL-80 μg/mL, 48 h
Description: Effect of SEQ ID No 2 on the expression of following 7 biomarkers were estimated in Human Meningioma cell line (IOMM-Lee) using multiplex analysis: TNF-alpha, VEGF, VEGFR2, HGF, HGFR/c-MET, PDGF-BB, and Contactin-1. Levels of another marker, Notch-1 were also estimated by ELISA in the same cell line. These 8 biomarkers play very crucial role in the pathogenesis and progression of Brain Tumor. […] Supernatants were collected and the levels of these 8 markers were investigated.

[1] = system: VEGF release in MDA-MB-231 cells; experiment: VEGF secretion in cancer cells (Human VEGF ELISA); format: cell-based; conditions: 24 h
Description: (§1) The cell lines were maintained in DMEM+10% […] (heat inactivated) at 37° C. with 5% CO2, and 95% humidity. Cells were counted and plated in 6-well plates for 24 h at a density of 0.5×10^6 cells/well. The cells were incubated overnight under growth conditions as described above so as to allow cell recovery and exponential growth. Cells were treated with each test item at different concentrations for 24h in serum free media. Doxorubicin was used as positive control. Secreted levels of VEGF were determined in supernatants after 24 hours using Human VEGF ELISA kit (R&D systems) as per manufacturer's protocol. Change in VEGF levels corresponding to each treatment was calculated using the following formula: […]

[2] = system: VEGF release in PANC-1 cells; experiment: VEGF secretion in cancer cells (Human VEGF ELISA); format: cell-based; conditions: 24 h
Description: as §1

[3] = system: PA-1 (Human Ovary carcinoma); experiment: Calcein AM cytotoxicity assay; conditions: 48h
Description: (§2) All the cancer cell lines were procured from National Centre for Cell Science, Pune (India). The cell lines were maintained under conditions as described in Table 21 below. The cell lines were sub-cultured by trypsinization followed by splitting the cell suspension into fresh flasks and supplementing with fresh culture medium.
(§3) All the cell lines were grown in specified media at 37° C. with 95% Humidity and […].
(§4) The cells were trypsinized, counted by Trypan blue method in Neuebauer's Chamber and plated in wells of flat bottom 96-well plate (dark walled plate, flat bottom) at the density corresponding to 10×10^3 cells/well/180 μl medium.
(§5) Following overnight incubation, the cells were treated with test item (20 μL) at concentrations ranging from 2.5-80 μg/mL, so that the total volume in each well is 200 μL.
(§6) The cells were incubated with the test items or positive control for a time period of 48h. Following incubation, the cell cytotoxicity was estimated using Calcein AM Cell Viability Assay Kit from R&D systems (Cat No. 4892-010-K).
(§7) Fluorescence was measured at 485 nm (excitation/528 run (emission) spectra using Synergy HT micro plate reader.
(§8) Percentage cytotoxicity wrt untreated cells was calculated using formula:
(§9) Cytotoxicity=[(RFUuntreated−RFUsample)/RFUuntreated]*100
(§10) RFU: relative fluorescence units
(§11) IC50 value was calculated using Graph-Pad Prism version 4.01 software.

[4] = system: ZR-75-1 (Human ductal carcinoma); experiment: Calcein AM cytotoxicity assay; conditions: 48h
Description: as §2, §3, §4, §5, §6, §7, §8, §9, §10, §11

[5] = system: SKOV-3 (Human Ovary adenocarcinoma); experiment: Calcein AM cytotoxicity assay; conditions: 48h
Description: as §2, §3, §4, §5, §6, §7, §8, §9, §10, §11

[6] = system: AGS (Human stomach adenocarcinoma); experiment: Calcein AM cytotoxicity assay; conditions: 48h
Description: as §2, §3, §4, §5, §6, §7, §8, §9, §10, §11

[7] = system: A549 (Human lung carcinoma); experiment: Calcein AM cytotoxicity assay; conditions: 48h
Description: as §2, §3, §4, §5, §6, §7, §8, §9, §10, §11

[8] = system: MDA-MB-231 (Human breast adenocarcinoma); experiment: MTT cytotoxicity assay; conditions: 48h
Description: as §2, with “(India). Cell” for “(India). The cell”, “as mentioned” for “as described”, “Table 23.” for “Table 21 below.”
(§12) All the cell lines were grown in specified media at 37° C. with 95% Humidity and 5% CO2.
(§13) The cells were trypsinized, counted by Trypan blue method in Neuebauer's Chamber and plated in wells of flat bottom 96-well plate at the density corresponding to 10×10^3 cells/well/200 μL medium.
(§14) Following overnight incubation, the media in the plate was replenished with 180 μL/well and then the cells were treated with 20 μL of each test item at concentrations ranging from 2.5 μg/mL-80 μg/mL in triplicates, so that the total volume in each well is 200 μL.
(§15) The untreated cells served as negative control. The cells were incubated with the test items or positive control for a time period of 48h. Following incubation, the cell cytotoxicity was estimated using MTT assay. Absorbance was measured at 540 nm. The percentage cytotoxicity corresponding to each treatment was calculated using the formula:
(§16) % Cytotoxicity=(1−X/R)*100
(§17) Where X=absorbance of wells corresponding to treated cells R=absorbance of untreated cells (cells maintained in growth medium only)
as §11

[9] = system: MIA PaCa-2 (Human pancreatic carcinoma); experiment: MTT cytotoxicity assay; conditions: 48h
Description: as §2, with “(India). Cell” for “(India). The cell”, “as mentioned” for “as described”, “Table 23.” for “Table 21 below.”
as §12, §13, §14, §15, §16, §17, §11

[10] = system: MCF-7 (Human breast adenocarcinoma); experiment: MTT cytotoxicity assay; conditions: 48h
Description: as §2, with “(India). Cell” for “(India). The cell”, “as mentioned” for “as described”, “Table 23.” for “Table 21 below.”
as §12, §13, §14, §15, §16, §17, §11

[11] = system: PANC-1 (Human pancreatic epitheloid carcinoma); experiment: MTT cytotoxicity assay; conditions: 48h
Description: as §2, with “(India). Cell” for “(India). The cell”, “as mentioned” for “as described”, “Table 23.” for “Table 21 below.”
as §12, §13, §14, §15, §16, §17, §11

[12] = system: T24 (Human Bladder Cancer); experiment: MTT cytotoxicity assay; conditions: 48h
Description: as §2, with “(India). Cell” for “(India). The cell”, “as mentioned” for “as described”, “Table 23.” for “Table 21 below.”
as §12, §13, §14, §15, §16, §17, §11

[13] = system: T-47D (Human mammary gland ductal carcinoma); experiment: MTT cytotoxicity assay; conditions: 48h
Description: as §2, with “(India). Cell” for “(India). The cell”, “as mentioned” for “as described”, “Table 23.” for “Table 21 below.”
as §12, §13, §14, §15, §16, §17, §11

[14] = system: MDA-MB-453 (Human breast metastatic carcinoma); experiment: MTT cytotoxicity assay; conditions: 48h
Description: as §2, with “(India). Cell” for “(India). The cell”, “as mentioned” for “as described”, “Table 23.” for “Table 21 below.”
as §12, §13, §14, §15, §16, §17, §11

B1: SEQ ID NO. 2: recombinant lectin; variant of the S. rolfsii lectin amino acid sequence (reported as Rec-2 in WO 2010/095143) (protein)
chain: TYKITVRVYQTNPDAFFHPVEKTVWKYANGGTWTITDDQHVLTMGGSGTSGTLRFHADNGESFTATFGVHNYKRWCDIVTNLAADETGMVINQQYYSQKNREEARERQLSNYQVKNAKGRNFQIVYTEAEGNDLHANLIIG
modifications: In vitro synthesis
Notch-1
  Percentage inhibition on levels of Notch-1: 81.2%-99.8%
[1]; 2.5 μg/mL
  Average absorbance at 450 nM: 0.970
  Percentage decrease in VEGF levels: −25.0%
  VEGF level: 579.3 pg/mL
[1]; 5 μg/mL
  Average absorbance at 450 nM: 0.763
  Percentage decrease in VEGF levels: 4.8%
  VEGF level: 441.0 pg/mL
[1]; 10 μg/mL
  Average absorbance at 450 nM: 1.072
  Percentage decrease in VEGF levels: −39.8%
  VEGF level: 647.5 pg/mL
[1]; 20 μg/mL
  Average absorbance at 450 nM: 1.552
  Percentage decrease in VEGF levels: −108.8%
  VEGF level: 967.3 pg/mL
[1]; 80 μg/mL
  Average absorbance at 450 nM: 2.222
  Percentage decrease in VEGF levels: −205.2%
  VEGF level: 1413.9 pg/mL
[2]; 2.5 μg/mL
  Average absorbance at 450 nM: 1.717
  Percentage decrease in VEGF levels: −5.5%
  VEGF level: 1077.5 pg/mL
[2]; 5 μg/mL
  Average absorbance at 450 nM: 1.821
  Percentage decrease in VEGF levels: −12.3%
  VEGF level: 1146.8 pg/mL
[2]; 10 μg/mL
  Average absorbance at 450 nM: 2.085
  Percentage decrease in VEGF levels: −29.5%
  VEGF level: 1322.6 pg/mL
[2]; 20 μg/mL
  Average absorbance at 450 nM: 2.202
  Percentage decrease in VEGF levels: −37.2%
  VEGF level: 1400.6 pg/mL
[2]; 80 μg/mL
  Average absorbance at 450 nM: 2.006
  Percentage decrease in VEGF levels: −24.4%
  VEGF level: 1269.9 pg/mL
AGS
  % Cytotoxicity: 65.3%
[3]
  IC50: 20.3 µg/mL
[4]
  IC50: >80 µg/mL
[5]
  IC50: >80 µg/mL
[6]
  IC50: 42.6 µg/mL
[7]
  IC50: >80 µg/mL
MDA-MB-453
  % Cytotoxicity: 46.6%
[8]
  IC50: 9.7 µg/mL
[9]
  IC50: >80 µg/mL
[10]
  IC50: >80 µg/mL
[11]
  IC50: 24.3 µg/mL
[12]
  IC50: 10.4 µg/mL
[13]
  IC50: >80 µg/mL
[14]
  IC50: >80 µg/mL
